Measurements taken from publication PMC13499124, “Insights into how JIP3 and JIP4 adaptor proteins relieve the auto-inhibited form of the kinesin-1 motor” (The Journal of Biological Chemistry, 2026).
Where a chain is given by its changes, count along the chain named. In names and notes the source's numbering stands. Several values for one entry are separate records, joined by “and”; a condition that tells them apart may be missing. Equal values may be shown once.

B1: JIP3-RH1-lz3 fragment (domain or fragment, mouse, UniProt Q9ESN9-1 22-100, looked up)
chain: GSVMSERVSGLAGSIYREFERLIHCYDEEVVKELMPLVVNVLENLDSVLSENQEHEVELELLREDNEQLLTQYEREKAL
modifications: labelled with the dye NHS-NT-488 (Protein Labelling Kit Blue-NHS, NanoTemper) in the MST assay
notes: JIP3, mouse, NP_038959.2, residues 22-100 (RH1 domain and first three heptad repeats of LZI); Unlabelled in SEC-MALS; source: E. coli Rosetta, purified (His-Trap, gel filtration, thrombin cleavage, gel filtration); not shown: His tag, N-terminal, cleaved; thioredoxin, N-terminal, cleaved
B2: JIP4-RH1-lz3 fragment (domain or fragment, UniProt O60271 18-95, looked up)
chain: AVMSERVSGLAGSIYREFERLIGRYDEEVVKELMPLVVAVLENLDSVFAQDQEHQVELELLRDDNEQLITQYEREKAL
modifications: labelled with a fluorescent dye in the MST assay (legend of Figure 4)
notes: JIP4, RH1 domain and first three heptad repeats of LZI, without the 17-residue N-terminus
B3: JIP3-N-RH1-lz3 fragment (domain or fragment, mouse, UniProt Q9ESN9-1 1-100, looked up)
chain: MMEIQMDEGGGVVVYQDDYCSGSVMSERVSGLAGSIYREFERLIHCYDEEVVKELMPLVVNVLENLDSVLSENQEHEVELELLREDNEQLLTQYEREKAL
modifications: labelled with the dye NHS-NT-488 (Blue-NHS, NanoTemper) in Tables 1 and 3; labelled with NHS-fluorescein (Thermo Fisher Scientific) in Table 2
notes: JIP3, mouse, NP_038959.2, residues 1-100 (N-terminus, RH1 domain and first three heptad repeats of LZI); Unlabelled in SEC-MALS; also called JIP3-WT; wild-type JIP3-N-RH1-lz3; source: E. coli Rosetta, purified (His-Trap, gel filtration, thrombin cleavage, gel filtration); not shown: His tag, N-terminal, cleaved; thioredoxin, N-terminal, cleaved
B4: JIP4-N-RH1-lz3 fragment (domain or fragment, UniProt O60271 1-95, looked up)
chain: MELEDGVVYQEEPGGSGAVMSERVSGLAGSIYREFERLIGRYDEEVVKELMPLVVAVLENLDSVFAQDQEHQVELELLRDDNEQLITQYEREKAL
modifications: labelled with a fluorescent dye in the MST assay (legend of Figure 4)
notes: JIP4, N-terminus (17 residues), RH1 domain and first three heptad repeats of LZI; also called wild-type JIP4-N-RH1-lz3
B5: JIP3-N-RH1-LZI fragment (domain or fragment, mouse, UniProt Q9ESN9-1 1-187, looked up)
chain: MMEIQMDEGGGVVVYQDDYCSGSVMSERVSGLAGSIYREFERLIHCYDEEVVKELMPLVVNVLENLDSVLSENQEHEVELELLREDNEQLLTQYEREKALRKQAEEKFIEFEDALEQEKKELQIQVEHYEFQTRQLELKAKNYADQISRLEERESEMKKEYNALHQRHTEMIQTYVEHIERSKMQQV
modifications: labelled with the dye NHS-NT-488 (Protein Labelling Kit Blue-NHS, NanoTemper) in the MST assay
notes: Unlabelled in SEC-MALS; also called JIP3-N-RH1-LZ1; JIP3-Nter; source: E. coli Rosetta, purified (His-Trap, gel filtration, thrombin cleavage, gel filtration); not shown: His tag, N-terminal, cleaved; thioredoxin, N-terminal, cleaved
B6: JIP3-N-RH1-lz3 E39A (domain or fragment, mouse, UniProt Q9ESN9-1 1-100, looked up)
chain: B3 chain with E39A
modifications: labelled with NHS-fluorescein (Thermo Fisher Scientific)
notes: JIP3, mouse, NP_038959.2, residues 1-100 (N-RH1-lz3); also called JIP3-E39A; source: E. coli Rosetta, purified (His-Trap, gel filtration, thrombin cleavage, gel filtration); not shown: His tag, N-terminal, cleaved; thioredoxin, N-terminal, cleaved
B7: JIP3-N-RH1-lz3 E41A (domain or fragment, mouse, UniProt Q9ESN9-1 1-100, looked up)
chain: B3 chain with E41A
modifications: labelled with NHS-fluorescein (Thermo Fisher Scientific)
notes: JIP3, mouse, NP_038959.2, residues 1-100 (N-RH1-lz3); also called JIP3-E41A; source: E. coli Rosetta, purified (His-Trap, gel filtration, thrombin cleavage, gel filtration); not shown: His tag, N-terminal, cleaved; thioredoxin, N-terminal, cleaved
B8: JIP3-N-RH1-lz3 E27A (domain or fragment, mouse, UniProt Q9ESN9-1 1-100, looked up)
chain: B3 chain with E27A
modifications: labelled with NHS-fluorescein (Thermo Fisher Scientific)
notes: JIP3, mouse, NP_038959.2, residues 1-100 (N-RH1-lz3); also called JIP3-E27A; source: E. coli Rosetta, purified (His-Trap, gel filtration, thrombin cleavage, gel filtration); not shown: His tag, N-terminal, cleaved; thioredoxin, N-terminal, cleaved
B9: JIP3-N-RH1-lz3 N65A (domain or fragment, mouse, UniProt Q9ESN9-1 1-100, looked up)
chain: B3 chain with N65A
modifications: labelled with NHS-fluorescein (Thermo Fisher Scientific)
notes: JIP3, mouse, NP_038959.2, residues 1-100 (N-RH1-lz3); also called JIP3-N65A; source: E. coli Rosetta, purified (His-Trap, gel filtration, thrombin cleavage, gel filtration); not shown: His tag, N-terminal, cleaved; thioredoxin, N-terminal, cleaved
B10: JIP3-N-RH1-lz3 E54A (domain or fragment, mouse, UniProt Q9ESN9-1 1-100, looked up)
chain: B3 chain with E54A
modifications: labelled with NHS-fluorescein (Thermo Fisher Scientific)
notes: JIP3, mouse, NP_038959.2, residues 1-100 (N-RH1-lz3); also called JIP3-E54A; source: E. coli Rosetta, purified (His-Trap, gel filtration, thrombin cleavage, gel filtration); not shown: His tag, N-terminal, cleaved; thioredoxin, N-terminal, cleaved
B11: JIP3-N-RH1-lz3 R38A (domain or fragment, mouse, UniProt Q9ESN9-1 1-100, looked up)
chain: B3 chain with R38A
modifications: labelled with NHS-fluorescein (Thermo Fisher Scientific)
notes: JIP3, mouse, NP_038959.2, residues 1-100 (N-RH1-lz3); also called JIP3-R38A; source: E. coli Rosetta, purified (His-Trap, gel filtration, thrombin cleavage, gel filtration); not shown: His tag, N-terminal, cleaved; thioredoxin, N-terminal, cleaved
B12: JIP3-N-RH1-lz3 R42A (domain or fragment, mouse, UniProt Q9ESN9-1 1-100, looked up)
chain: B3 chain with R42A
modifications: labelled with NHS-fluorescein (Thermo Fisher Scientific)
notes: JIP3, mouse, NP_038959.2, residues 1-100 (N-RH1-lz3); also called JIP3-R42A; source: E. coli Rosetta, purified (His-Trap, gel filtration, thrombin cleavage, gel filtration); not shown: His tag, N-terminal, cleaved; thioredoxin, N-terminal, cleaved
B13: JIP3-RH1-LZI fragment (domain or fragment, UniProt Q9ESN9 22-187, looked up)
chain: GSVMSERVSGLAGSIYREFERLIHCYDEEVVKELMPLVVNVLENLDSVLSENQEHEVELELLREDNEQLLTQYEREKALRKQAEEKFIEFEDALEQEKKELQIQVEHYEFQTRQLELKAKNYADQISRLEERESEMKKEYNALHQRHTEMIQTYVEHIERSKMQQV
modifications: labelled with the dye NHS-NT-488 (Protein Labelling Kit Blue-NHS, NanoTemper) in the MST assay
notes: JIP3, RH1 domain followed by the entire LZI coiled-coil, without the N-terminus; also called RH1-LZ1
B14: JIP3-N-RH1-lz3 L70F-S71A-E72Q-N73D (domain or fragment, mouse, UniProt Q9ESN9-1 1-100, looked up)
chain: B3 chain with L70F, S71A, E72Q, N73D
modifications: labelled with a fluorescent dye in the MST assay (legend of Figure 4)
notes: JIP3, mouse, NP_038959.2, residues 1-100 (N-RH1-lz3), residues changed to those of JIP4; also called JIP3-L70F-S71A-E72Q-N73D; source: E. coli Rosetta, purified (His-Trap, gel filtration, thrombin cleavage, gel filtration); not shown: His tag, N-terminal, cleaved; thioredoxin, N-terminal, cleaved
B15: JIP3-N-RH1-lz3 H45G-C46R (domain or fragment, mouse, UniProt Q9ESN9-1 1-100, looked up)
chain: B3 chain with H45G, C46R
modifications: labelled with a fluorescent dye in the MST assay (legend of Figure 4)
notes: JIP3, mouse, NP_038959.2, residues 1-100 (N-RH1-lz3), residues changed to those of JIP4; also called JIP3-H45G-C46R; source: E. coli Rosetta, purified (His-Trap, gel filtration, thrombin cleavage, gel filtration); not shown: His tag, N-terminal, cleaved; thioredoxin, N-terminal, cleaved
B16: JIP3-N-RH1-lz3 E77Q (domain or fragment, mouse, UniProt Q9ESN9-1 1-100, looked up)
chain: B3 chain with E77Q
modifications: labelled with a fluorescent dye in the MST assay (legend of Figure 4)
notes: JIP3, mouse, NP_038959.2, residues 1-100 (N-RH1-lz3), residue changed to that of JIP4; also called JIP3-E77Q; source: E. coli Rosetta, purified (His-Trap, gel filtration, thrombin cleavage, gel filtration); not shown: His tag, N-terminal, cleaved; thioredoxin, N-terminal, cleaved
B17: JIP3-N-RH1-lz3 N61A (domain or fragment, mouse, UniProt Q9ESN9-1 1-100, looked up)
chain: B3 chain with N61A
modifications: labelled with a fluorescent dye in the MST assay (legend of Figure 4)
notes: JIP3, mouse, NP_038959.2, residues 1-100 (N-RH1-lz3), residue changed to that of JIP4; also called JIP3-N61A; Asn61 mutant; source: E. coli Rosetta, purified (His-Trap, gel filtration, thrombin cleavage, gel filtration); not shown: His tag, N-terminal, cleaved; thioredoxin, N-terminal, cleaved

Molecular target: the molecule itself
Experiment: SEC-MALS; JIP3/4-Nter fragments in solution, single peak; dimer; conditions not shown (Fig. S1B, Table S2)
Conditions: not given

Binder | stoichiometry N
B1 | 2
B2 | 2
B3 | 2
B4 | 2
B5 | 2

Molecular target: T1, KIF5B-CC3b-CC4 fragment, 6-histidine tag removed (human, UniProt P33176 771-914)
T1 construct: kinesin-1 heavy chain KIF5B, human, NP_004512.1, residues 771-914 (last part of CC3 and CC4); source: E. coli Rosetta, purified (His-Trap, Superdex 75 gel filtration); not shown: His6, N-terminal, cleaved
T1 sequence (P33176 771-914): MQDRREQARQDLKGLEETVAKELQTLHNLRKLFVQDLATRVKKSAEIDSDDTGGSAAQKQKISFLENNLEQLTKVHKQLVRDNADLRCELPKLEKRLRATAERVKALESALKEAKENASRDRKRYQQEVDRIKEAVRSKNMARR
Experiment: MST + other fluorescence titration; JIP3-N-RH1-lz3 wild type and alanine mutants labelled with NHS-fluorescein, constant at 20 nM; KIF5B-CC3b-CC4 without His tag titrated; 50 mM Tris pH 8.0, 200 mM NaCl, 10 mM MgCl2, 0.05% Tween 20; room temperature; Monolith NT.115; the change in overall fluorescence intensity was used for the Kd; 1:1 fit
Conditions: both partners purified

Kd | Binder
395 ± 137 nM | B6
204 ± 57.8 nM | B7
215 ± 57.3 nM | B8
148 ± 21.4 nM | B3
118 ± 23 nM | B9
226 ± 26.4 nM | B10
151 ± 27.8 nM | B11
90.8 ± 12.6 nM | B12

Molecular target: T2, KIF5B-CC3b-CC4-dt fragment (human, UniProt P33176 771-963)
T2 construct: kinesin-1 heavy chain KIF5B, human, NP_004512.1, residues 771-963 (last part of CC3, CC4 and distal tail); pET28 plasmid, NdeI/XhoI; the methods call it CC3-CC4-dt; also called KIF5B-CC3-CC4-dt; KIF5B-Tail; source: E. coli Rosetta, purified (His-Trap, Superdex 75 gel filtration); not shown: His6, N-terminal, kept
T2 sequence (P33176 771-963): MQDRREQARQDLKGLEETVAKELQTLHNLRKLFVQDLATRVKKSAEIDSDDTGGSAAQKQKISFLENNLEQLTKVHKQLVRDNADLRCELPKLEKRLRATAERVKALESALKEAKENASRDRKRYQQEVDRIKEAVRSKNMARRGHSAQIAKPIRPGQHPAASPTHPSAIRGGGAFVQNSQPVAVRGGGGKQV
Experiment: MST; labelled JIP3/4 fragment (Blue-NHS dye) constant at 20 nM, KIF5B fragment titrated 120 pM to 4 uM (up to 38.2 uM when needed); 50 mM Tris pH 8.0, 200 mM NaCl, 10 mM MgCl2, 0.05% Tween 20; room temperature; Monolith NT.115, premium capillaries, MST-on 0.5-1.5 s; 1:1 Kd fit; three replicates; the paper calls its affinities relative measurements
Conditions: both partners purified

Kd | Binder
79.3 ± 15.9 nM | B1
14.7 nM and 18.3 nM | B3
50.5 ± 12.9 nM | B13
18.8 ± 4 nM | B5

Molecular target: T3, KIF5B-CC3b-CC4 fragment, with N-terminal 6-histidine tag (human, UniProt P33176 771-914)
T3 construct: kinesin-1 heavy chain KIF5B, human, NP_004512.1, residues 771-914 (last part of CC3 and CC4); also called CC3-CC4; source: E. coli Rosetta, purified (His-Trap, Superdex 75 gel filtration); not shown: His6, N-terminal, kept
T3 sequence (P33176 771-914): as the sequence (P33176 771-914) above
Experiment: as above
Conditions: both partners purified

Kd | Binder
77.7 ± 12 nM | B3

Molecular target: T2, KIF5B-CC3b-CC4-dt fragment
Experiment: as above
Conditions: both partners purified
Remark: another data set of the same source

Kd | Binder
682 ± 187 nM | B2
20.6 ± 2.6 nM | B3
47.5 ± 4.6 nM | B14
198 ± 27.3 nM | B15
46.8 ± 6.8 nM | B16
29.9 ± 3 nM | B17
777 ± 146 nM | B4
